Values of other authors as cited in article PMC4266928.

Target: insulin (Homo sapiens) (UniProt P01308)

insulin (from UniProt P01308)
Kd: 10 µM
